This is an account of results in patent US20240287172A1 (SCIRHOM, published 2024).

One test addresses T1, hiR2-FL-G531S-T7 (human, UniProt Q6PJF5 1-856).
T1 sequence: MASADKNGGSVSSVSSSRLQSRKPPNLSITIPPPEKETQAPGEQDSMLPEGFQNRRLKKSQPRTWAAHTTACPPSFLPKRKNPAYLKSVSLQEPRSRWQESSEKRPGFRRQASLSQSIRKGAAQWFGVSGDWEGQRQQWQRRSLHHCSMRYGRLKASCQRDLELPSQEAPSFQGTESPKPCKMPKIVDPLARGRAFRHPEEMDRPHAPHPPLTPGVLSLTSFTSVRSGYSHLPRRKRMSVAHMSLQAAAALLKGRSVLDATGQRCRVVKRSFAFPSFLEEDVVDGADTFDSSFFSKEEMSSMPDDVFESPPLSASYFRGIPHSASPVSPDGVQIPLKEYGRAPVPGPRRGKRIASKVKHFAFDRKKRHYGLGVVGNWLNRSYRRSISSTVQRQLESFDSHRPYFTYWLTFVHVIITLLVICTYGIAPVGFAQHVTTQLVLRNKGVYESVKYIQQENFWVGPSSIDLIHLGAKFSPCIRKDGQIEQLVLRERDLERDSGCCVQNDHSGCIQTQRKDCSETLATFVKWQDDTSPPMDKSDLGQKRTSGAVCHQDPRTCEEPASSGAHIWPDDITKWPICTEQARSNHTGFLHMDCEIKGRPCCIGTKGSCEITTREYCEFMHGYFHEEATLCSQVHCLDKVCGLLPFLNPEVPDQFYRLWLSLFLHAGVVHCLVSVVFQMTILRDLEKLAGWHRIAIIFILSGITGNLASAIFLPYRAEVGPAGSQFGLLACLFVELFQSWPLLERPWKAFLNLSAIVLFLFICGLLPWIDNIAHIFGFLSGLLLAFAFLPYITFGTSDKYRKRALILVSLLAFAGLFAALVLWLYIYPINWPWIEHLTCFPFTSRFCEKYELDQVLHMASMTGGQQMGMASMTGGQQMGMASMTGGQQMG
Briefly: FACS, MEF-DKO cells, 3 µg/ml. Background: A flow cytometer gives signals particle by particle.

The target of another test is T2, hiR2-FL-WT-FLAG (human, UniProt Q6PJF5 1-856).
T2 construct: on MEF-DKO cells
T2 sequence: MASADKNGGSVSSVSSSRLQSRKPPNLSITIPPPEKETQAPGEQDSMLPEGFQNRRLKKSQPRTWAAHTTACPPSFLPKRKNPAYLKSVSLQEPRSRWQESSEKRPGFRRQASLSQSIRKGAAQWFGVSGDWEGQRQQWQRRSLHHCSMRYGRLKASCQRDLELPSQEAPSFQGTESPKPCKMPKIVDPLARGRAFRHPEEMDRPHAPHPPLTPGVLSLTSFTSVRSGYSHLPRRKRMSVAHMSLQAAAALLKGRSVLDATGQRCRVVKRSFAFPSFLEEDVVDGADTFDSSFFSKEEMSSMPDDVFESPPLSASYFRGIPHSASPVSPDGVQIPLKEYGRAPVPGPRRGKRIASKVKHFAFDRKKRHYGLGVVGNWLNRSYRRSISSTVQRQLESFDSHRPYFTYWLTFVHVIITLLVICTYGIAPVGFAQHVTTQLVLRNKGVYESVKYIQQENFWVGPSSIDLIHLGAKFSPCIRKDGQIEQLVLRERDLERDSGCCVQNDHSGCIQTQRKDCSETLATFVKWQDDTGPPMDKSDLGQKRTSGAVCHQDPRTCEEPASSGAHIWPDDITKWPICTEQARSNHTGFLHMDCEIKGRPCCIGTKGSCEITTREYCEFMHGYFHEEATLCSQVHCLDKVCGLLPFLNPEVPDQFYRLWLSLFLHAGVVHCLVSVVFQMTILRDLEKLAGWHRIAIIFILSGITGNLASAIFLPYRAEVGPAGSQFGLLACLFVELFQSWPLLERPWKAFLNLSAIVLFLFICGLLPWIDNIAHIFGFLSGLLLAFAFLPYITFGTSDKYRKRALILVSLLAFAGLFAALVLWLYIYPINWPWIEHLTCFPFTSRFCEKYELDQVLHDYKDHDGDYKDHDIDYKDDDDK
Briefly: FACS, MEF-DKO-hiR2-FL-WT-FLAG cells, 3 µg/ml. The method, then: In brief, immortalized MEF-DKO-EV control cells, MEF-DKO-hiR2-FL-WT-FLAG cells and MEF-DKO-miR2-FL-WT-FLAG cells were harvested with 10 mM EDTA in PBS, washed and resuspended in FACS buffer (PBS, 3% FBS, 0.05% sodium azide), and seeded in Nunc U-bottom 96-well plates (Thermo Fisher Scientific, USA) at approximately 3×10⁵ cells per well. To pellet cells and remove supernatants, the plates were centrifuged at 1,500 rpm and 4° C. for 3 minutes. For primary staining, cells were resuspended in 100 μl per well of either FACS buffer alone (controls), mouse monoclonal anti-FLAG IgG (Sigma-Aldrich, USA) at 3 μg/ml FACS buffer or the antibodies of the invention also at 3 μg/ml FACS buffer and incubated on ice for 1 hour. Afterwards, plates were centrifuged at 1,500 rpm and 4° C. for 3 minutes and washed twice with 200 μl per well of FACS buffer. For secondary staining, cells were spun down and resuspended in 100 μl per well of PE-conjugated goat anti-mouse IgG F(ab′)2 detection fragment (Dianova, Germany) diluted 1:100 in FACS buffer. Protected from light, the cell suspensions were incubated on ice for 1 hour. Plates were then centrifuged at 1,500 rpm and 4° C. for 3 minutes and washed three times with 200 μl per well of FACS buffer. Finally, cells were resuspended in 150 μl per well of FACS buffer and analyzed using a BD Accuri™ C6 Plus flow cytometer (Becton Dickinson, Germany).

B1: antibody 48 (antibody, V domains shown)
VH: QVQLQQSGTELVRPGTSVKVSCKASGYAFTNYLIEWVKQRPGQGLEWIGVINPGSGFTKYNEKFKGKATLTADKSSSTVYMHLSSLTSEDSAVYFCARGLYRAMDYWGQGTSVTVSS
VL: DIQMTQSPASQSASLGESVTITCLASQTIATWLAWYQQKPGKSPQLLIYGATTLADGVPSRFSGGGSGTKFSFKISSLQAEDFVSYYCQQLYSTPYTFGGGTKLEIK
notes: mouse IgG, kappa light chain; also called clone #48; purified antibody 48
As to B1, in the test with hiR2-FL-G531S-T7, the “loss of binding vs wild type” value was ≥ 30%.

B2: antibody 47 (antibody, V domains shown)
VH: QVQLQQSGAELVRPGTSVKVSCKASGYAFTNYLIEWVKQRPGQGLEWIGVINPGSGFTNYNEKFKGKAILNADKSSSTAYMQLISLTSEDSAVYFCARDLKRAMDHWGQGTSVTVSS
VL: DIQMTQSPASQSASLGESVTITCLASQTIGTWLAWYQQKPGKSPQLLIHAATSLADGVPSRFSGSGSGTKFSFKISSLQAEDFVSYYCQQIYSSPYTFGGGTKLEIK
notes: mouse IgG, kappa light chain; also called clone #47
As to B2, in the test with hiR2-FL-WT-FLAG, the binding result is “binds”.

B3: antibody 50 (antibody, V domains shown)
VH: QVQLQQSGAELVRPGASVKVSCKASGYAFSNYLIEWVKQRPGQGLEWIGVINPGSGFTKYNEKFKGKATLTADKSSSTAYMQLSSLTSEDSAVYFCARGLYRAMDYWGQGTSVTVSS
VL: DIQMTQSPASQSASLGESVTITCLASQTIGTWLAWYQQKPGKSPQLLIYAAASLADGVPSRFSGGGSGTKFSFKISSLQAEDFVNYYCQQIYSTPYTFGGGTKLEIK
notes: mouse IgG, kappa light chain; also called clone #50; purified antibody 50
Consider B3, for which, in the test with hiR2-FL-G531S-T7, the “loss of binding vs wild type” value was ≥ 30%.

B4: antibody 51 (antibody, V domains shown)
VH: QVQLQQSGAELVKPGASVKISCKASGYTFSNYWMNWVKQRPGKGLEWIGQIYPGDGDTKYNGKFKNKATLTADKSSSTAYMQFSSLTSEDSAVYFCARGDLVFVYWGLGTLVTVSA
VL: DVQITQSPSYLAVSPGETITINCRASKNIRKYLAWYQEKPGKTNKLLIYSGSTSQSGVPSRFSGSGSGTDFTLTISSLEPEDFAMYYCQQHNEYPYTFGGGTKLEIK
notes: mouse IgG, kappa light chain; also called clone #51
In the case of B4, in the test with hiR2-FL-WT-FLAG, the binding result is “binds”.
